The values below come from patent US10813913B2, “Small molecules that mimic or antagonize actions of granulocyte colony-stimulating-factor (G-CSF)” (UNIVERSITY OF SOUTH FLORIDA, priority 2016, dated 2020).

Entries after “also recorded” stand apart in the source; their conditions may differ.

In test [1] the test system is PKCδVIII and Bcl2 expressed in SH-SY5Y neuronal cells. Description: Western blot of PKCδVIII and Bcl2 in SH-SY5Y neuronal cells. It counts as cell-based, human. Particulars: SH-SY5Y, G-CSF 100 ng/mL (5.3 nM), 24 h. The protocol:
(§1) THP-1 cells or SH-SY5Y cells 3×10^6 cells in 5 mL media in a 25 cm^2 flask were treated with 100 ng/mL G-CSF or three different concentrations of the test drug for 24 h. In addition, a set of flasks were co-incubated with the combination of G-CSF and 3 concentrations of test drug. Whole cell lysates ([…]) were separated on 10% polyacrylamide gel electrophoresis-SDS (PAGE-SDS). Proteins were electrophoretically transferred to nitrocellulose membranes, blocked with 5% nonfat milk prepared on Tris buffered saline containing 0.1% Tween 20, washed and incubated with a polyclonal antibody against either Bcl2 (Cell Signaling, Danvers, Mass.) or PKCδVIII-specific polyclonal antibody (Jiang, K., et al. Biochemistry 2008, 47, 787-797). The house keeping gene GAPDH was used as an internal standard. Following incubation with anti-rabbit IgG-HRP, enhanced chemiluminesence (Pierce™, Thermo Scientific, Walthahm, Mass.) was used for detection and the gels were analyzed using UN-SCAN-IT™ software (Silk Scientific, Inc., Orem, Utah).
(§2) Statistical analysis. Densitometric results from Western blots were analyzed with two-tailed t-tests when only two groups were compared. In other analyses where 3 groups were compared, one-way ANOVA followed by t-tests with Dunnett's corrections for multiple comparisons was utilized. All data was presented as mean±SEM. All statistical analysis of data was done via PRISM4 or PRISM5 statistical analysis software (GraphPad Prism, La Jolla, Calif.). Neurohistologic analyses are performed using ANOVA. All comparisons were considered significant at level of P<0.05.

Test [2] deals with PKCδVIII and Bcl2 expressed in THP-1 monocytic cells. Description: Western blot of PKCδVIII and Bcl2 in THP-1 monocytic cells. Format: cell-based, human. Conditions: THP-1, G-CSF 200 ng/mL (10.6 nM), 24 h. The protocol:
as §1, with “In” for “THP-1 cells or SH-SY5Y cells 3×10^6 cells in 5 mL media in a 25 cm^2 flask were treated with 100 ng/mL G-CSF or three different concentrations of the test drug for 24 h. In”
as §2

The next test relates to mouse model of TBI. Conditions: earlier G-CSF work stated as background to Example 6; cited from earlier work.

B1: G-CSF: Granulocyte-colony stimulating factor, a glycoprotein cytokine; natural ligand of G-CSF-R; SEQ ID NO: 1 (protein, listed as Homo sapiens)
chain: MAGPATQSPMKLMALQLLLWHSALWTVQEATPLGPASSLPQSFLLKCLEQVRKIQGDGAALQEKLVSECATYKLCHPEELVLLGHSLGIPWAPLSSCPSQALQLAGCLSQLHSGLFLYQGLLQALEGISPELGPTLDTLQLDVADFATTIWQQMEELGMAPALQPTQGAMPAFASAFQRRAGGVLVASHLQSFLEVSYRVLRHLAQP
As to B1, the Bcl2 expression result in test [1] is “much greater at equivalent concentrations; also recorded: increased”; in test [2] it was “increased the expression of PKCδVIII and Bcl2”. For the same molecule, the PKCδVIII expression entry was “much greater at equivalent concentrations; also recorded: increased” in test [1]; “increased the expression of PKCδVIII and Bcl2” in test [2]. The “recovery in the radial arm water maze (RAWM)” value in the test with mouse model of TBI is “significantly promoted recovery”.
